The values below come from doi:10.1101/2020.11.27.401935.

Assay [1] has as its target S. cerevisiae cytochrome c oxidase (complex IV), CIV (S. cerevisiae (endogenous in strain BY 4741)) (UniProt P00427).
In assay [2] the target is S. cerevisiae CIII2CIV1/2 respiratory supercomplex (S. cerevisiae (endogenous in strain BY 4741)) (UniProt P07143). As to the kind of experiment: cryo-EM structure.
In assay [3] the target is S. cerevisiae cytochrome c oxidase (complex IV), CIV (S. cerevisiae (endogenous in strain BY 4741)) (UniProt P00427). As to the kind of experiment: cryo-EM structure.

UniProt P00427, sequence (P00427 whole entry, looked up, one chain of several): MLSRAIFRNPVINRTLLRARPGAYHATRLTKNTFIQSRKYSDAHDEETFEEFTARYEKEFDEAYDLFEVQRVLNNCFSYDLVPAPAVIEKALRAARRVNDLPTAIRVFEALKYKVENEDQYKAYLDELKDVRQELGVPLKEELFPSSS
UniProt P07143, sequence (P07143 whole entry, looked up, one chain of several): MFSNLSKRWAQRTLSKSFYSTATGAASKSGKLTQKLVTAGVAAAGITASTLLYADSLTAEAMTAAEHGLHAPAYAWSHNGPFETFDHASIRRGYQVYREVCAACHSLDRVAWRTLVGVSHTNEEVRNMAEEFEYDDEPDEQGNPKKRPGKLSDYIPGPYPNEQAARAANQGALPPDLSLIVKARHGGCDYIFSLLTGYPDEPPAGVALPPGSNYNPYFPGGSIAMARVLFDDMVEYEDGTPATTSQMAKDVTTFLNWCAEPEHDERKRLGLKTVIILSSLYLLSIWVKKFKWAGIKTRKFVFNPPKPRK

Regarding “S. cerevisiae cytochrome c (isoform-1 cyt. c) (from UniProt P00044 1-109) (natural protein)”, the cyt. c:O2 oxidoreductase activity of isolated CIV at a cyt. c:CIV ratio of one in assay [1] stood at 3 e^-/s. Besides, the stoichiometry N in assay [2] was found to be 1. In assay [3], this substance had a cyt. c occupancy from integrated density (map with cyt. c at CIV) of 1 and a percent of particle images with cyt. c bound at CIV of 33%.
